The subject of data set [1] is peptide-loaded T2 cells. The data set is described as follows: Induction of primary CTL responses; cytotoxicity toward peptide-loaded T2 cells.
Experimental: Induction of Primary CTL responses to peptides. These peptides were next used to stimulate T cells specific for peptide-coated targets. PBMC from a normal healthy donor heterozygous for HL-A2.1 were stimulated with peptide-pulsed T2 cells. […] Briefly, T2 cells (which co-express the costimulatory molecule B7.1) were washed 3 times in serum-free RPMI culture media supplemented with penicillin/streptomycin and glutamine (CM) and incubated with peptide at 20 μg/mL for 2 hr in CM. The peptide loaded T2 cells were then irradiated with 7500 cGy, washed once, and suspended with freshly isolated PBMC at a 1:1 ratio in CM supplemented with 10% human serum (HS) (Sigma, St. Louis, Mo.). After 7 days in culture, a second stimulation was performed and the following day, 60 IU/ml of recombinant human interleukin-2 (rhIL2) (Biosource International, Camarillo, Calif.) was added. After 14 days in culture a third stimulation was performed, followed on day 15 by addition of rhIL-2. A fourth stimulation was performed on day 21 followed on day 22 by the addition of rhIL2. After a total of 27 days in culture, the peptide-stimulated T cells were harvested and tested for peptide-specific cytotoxicity toward Calcein AM-labeled T2 cells, leukemia cell lines, and fresh human leukemia cells, as merely exemplary embodiments. […]
For data set [2], the system named is peptide-pulsed T2 cells, HLA-A2 transfected K562. The data set is described as follows: Elicitation of cyclin E peptide-specific CTL lines and killing of targets. To be noted: for donors in which peptide-stimulated CTL lines killed CCNE1144-152 and CCNE2144-152-pulsed T2 cells: PBMCs from 7 HLA-A2 positive normal donors. The format is cell-based, human. The text has this:
(§1) Nonameric peptides derived from cyclin E1 and cyclin E2 and predicted to bind to the HLA-A2 allele have similar amino acid sequences, differing only at position 7. Thus, the binding of CCNE1144-152 (cyclin E1 derived) and […] (cyclin E2 derived) was compared to that of PR1 by a peptide-binding assay. […] In 3 of 7 donors, CCNE1144-152-stimulated CTL lines killed both CCNE1144-152 and CCNE2144-152-pulsed T2 cells but not non-peptide-pulsed T2 cells and irrelevant peptide-pulsed T2 cells. In 4 of 7 same donors, CCNE2144-152-stimulated CTL lines killed both CCNE2144-152 and CCNE1144-152-pulsed T2 cells but not non-peptide-pulsed T2 cells and irrelevant peptide-pulsed T2 cells.
Thus, each peptide-specific CTLs can recognize both peptides with HLA-A2, but the immunogenicity of each peptide is different between individuals. Moreover, one of 4 CCNE1144-152-stimulated CTL lines which killed CCNE1144-152-pulsed T2 cell killed HLA-A2 transfected K562 leukemic cell line which is over-expressing cyclin E1 protein, but not non-transfected K562 leukemic cell line. Thus, CCNE1144-152-specific CTL can distinguish leukemic cell lines from normal PBMCs. From the data, it was concluded that cyclin E1/E2 derived peptides are tumor antigens, because 1) cyclin E1/E2 are highly over-expressed in hematological malignancy, 2) cyclin E1/E2 peptides can sufficiently bind to HLA-A2 to stimulate CTL and 3) CCLE1144-152 specific CTL preferentially kills leukemic cell lines HLA-A2 restrictively.

Data set [3] concerns the target HLA-A2 (Homo sapiens, UniProt P04439, D140Y/D185E/D98H/E176V/E277Q/G131W/G231S/I119V/I121R/I166T/I218V/L300P/L318F/N151K/N90K/P208A/P217A/Q86G/Q94H/R138H/R169H/T345S). The data set is described as follows: Peptide-binding assay: HLA-A2 stabilization on T2 cells. To be noted: HLA-A2 stabilization on T2 cells relative to PR1.
Source text: as §1

The target in data set [4] is HLA-A2.1 (HLA-A*0201) with β2-microglobulin (human). The data set is described as follows: cell-based or functional assay.
Data set [5] shares this target. As to the kind of experiment: peptide-binding assay: stabilisation of HLA-A2 on T2 cells, fluorescence relative to PR1.
The subject of data set [6] is myeloid leukemia. To be noted: human, in vivo. The text has this: PR1 peptide vaccine can elicit PR1-CTL immunity in patients with myeloid leukemia. […] To test this in refractory leukemia patients, a phase I/II vaccine study was initiated. HLA-A2+ patients with CML (interferon-resistant or relapsed after BMT), AML (smoldering relapse or ≧2nd CR) or MDS (RAEB or RAEBt) with no detectable antibodies to proteinase 3 (no detectable cANCA) were eligible. Patients that relapsed after BMT or those ineligible for BMT were also eligible for study. Pregnant patients, HIV+ patients, and those with known vasculitis were excluded. Patients were required to have immunosuppression (i.e. cyclosporine, steroids) discontinued 4 weeks prior to study entry.
Primary endpoints were (1) toxicity assessment including the induction of autoimmunity resembling Wegener's granulomatosis, the systemic vasculitis associated with cANCA antibodies; and (2) induction of an immune response assessed by cytokine flow cytometry (CFC) of γ-IFN and PR1/HLA-A2 tetramer staining of PBMC before and 3 weeks after the last vaccination. Secondarily, clinical responses were assessed by standard criteria with bone marrow biopsy, cytogenetic studies (standard chromosome banding) and molecular studies (PCR for bcr-abl or other known abnormalities such as t(15;17), inv16, etc.) 3 weeks after the last vaccination. Patients were seen and evaluated in clinic every 3 weeks during the study period. […]

In data set [7] the target is T1, HLA-A2.1 (HLA-A*0201) with β2-microglobulin (human).
T1 construct: In the first assay HLA-A2.1 stood on TAP-deficient T2 cells; In the second assay it was a heterotrimer of HLA-A2.1 heavy chain, peptide and I125-labeled β2-microglobulin in solution
As to the kind of experiment: T2 cell HLA-A2.1 stabilisation (flow cytometry with BB7.2) and I125-β2-microglobulin dissociation from the heterotrimer.

Ends that are not written are not given here.

`CC[C@H](C)[C@H](NC(=O)[C@H](CCCNC(=N)N)NC(=O)[C@H](CCSC)NC(=O)[C@@H](NC(=O)[C@H](CCC(N)=O)NC(=O)[C@H](CCC(=O)O)NC(=O)[C@H](Cc1ccccc1)NC(=O)[C@H](CC(C)C)NC(=O)[C@@H](N)CCCNC(=N)N)C(C)C)C(=O)O` [MY4, RLFEQVMRI]: the “cytotoxicity of CTL line generated against the peptide toward MY2-loaded targets” value in data set [1] is recorded as “did not demonstrate any significant cytotoxicity”. Regarding “CCNE1144-152: Nonameric peptide derived from cyclin E1, predicted to bind to the HLA-A2 allele (ILLDWLMEV)”, in data set [2], the “peptide-stimulated CTL lines that killed HLA-A2 transfected K562 but not non-transfected K562” value was “one of 4”; the “donors in which peptide-stimulated CTL lines killed CCNE1144-152 and CCNE2144-152-pulsed T2 cells” value is recorded as 3 of 7. In data set [3], the “FI peptide/FI PR1” value worked out at 1.008. As for “BB7.2, mouse monoclonal antibody against HLA-A2.1”, the specific lysis of HLA-A2+ MCF-7 cells by PR1-CTL (calcein AM, 4 hours co-incubation) in data set [4] was 17%. On to “CCNE1144-152 (cyclin E1 derived nonameric peptide) (from UniProt P24864 147-155)”, for which the FI CCNE1144-152/FI PR1 in data set [5] came out at 1.01. Take KLLLALAGL [MY2]: the “specific lysis of cognate peptide-loaded target cells by CTL line generated against the peptide” value in data set [1] is “high specific lysis”. For “CCNE2144-152: Nonameric peptide derived from cyclin E2, predicted to bind to the HLA-A2 allele (ILLDWLLEV)”, the “donors in which peptide-stimulated CTL lines killed CCNE1144-152 and CCNE2144-152-pulsed T2 cells” value in data set [2] is listed as 4 of 7. The “FI peptide/FI PR1” value in data set [3] came to 1.189.

Take VLQELNVTV [PR1, VLQELNVTV]: the “dose levels eliminated on the basis of toxicity in Phase I” value in data set [6] was “none of the doses were eliminated on the basis of toxicity”. As to VLQELNVTV [PR1 peptide (VLQELNVTV), HLA-A2.1-restricted nonamer derived from proteinase 3], the binding result in data set [7] is listed as “binds”. On the same count and under the same terms, for RLFEQVMRI [MY4 peptide (RLFEQVMRI) from myeloperoxidase] the value was “binds”; for SLWRRPFNV [MY1 peptide (SLWRRPFNV) from myeloperoxidase], “binds”. On the same count and under the same terms, for LLSYFKQPV [MY3 peptide (LLSYFKQPV) from myeloperoxidase] the value was “binds”; for LIQPFMFRL [MY5 peptide (LIQPFMFRL) from myeloperoxidase], “binds”.

For KLLLALAGL [MY2 peptide (KLLLALAGL) from myeloperoxidase], the binding result in data set [7] is on record as “binds”.
